Results from patent publication US20090298765A1 (Takeda / Millennium, published 2009).
Non-standard residues stand in square brackets, D forms with d. No end group written: not given here. *: point of attachment. Phe(4-F) = N[C@@H](Cc1ccc(F)cc1)C(=O)O; Cyclohexanecarbonyl = O=C(C1CCCCC1)*; Arg(Me) = CNC(=N)NCCC[C@H](N)C(=O)O; 4Pal = N[C@@H](Cc1ccncc1)C(=O)O; d3Pal = N[C@H](Cc1cccnc1)C(=O)O; d4Pal = N[C@H](Cc1ccncc1)C(=O)O; Cha = N[C@@H](CC1CCCCC1)C(=O)O; amidino = N=C(N)*; azaGly = NNC(=O)O

B1: des(1-2)-Amidino-[AzaGly7,Arg(Me)9]MS10 (peptide)
peptide: amidino-WNSF[azaGly]L[Arg(Me)]F-NH2
SMILES: CNC(=N)NCCC[C@H](NC(=O)[C@H](CC(C)C)NC(=O)NNC(=O)[C@H](Cc1ccccc1)NC(=O)[C@H](CO)NC(=O)[C@H](CC(N)=O)NC(=O)[C@H](Cc1c[nH]c2ccccc12)NC(=N)N)C(=O)N[C@@H](Cc1ccccc1)C(N)=O
notes: also called Compound No. 273
B2: des(1-2)-[AzaGly7,Arg(Me)9]MS10 (peptide)
peptide: WNSF[azaGly]LR(Me)F-NH2
modifications: N-terminus assumed
SMILES: CNC(=N)NCCC[C@H](NC(=O)[C@H](CC(C)C)NC(=O)NNC(=O)[C@H](Cc1ccccc1)NC(=O)[C@H](CO)NC(=O)[C@H](CC(N)=O)NC(=O)[C@@H](N)Cc1c[nH]c2ccccc12)C(=O)N[C@@H](Cc1ccccc1)C(N)=O
notes: also called Compound No. 271
B3: [D-Tyr1,D-Ser2,AzaGly7,Arg(Me)9]MS10 (peptide)
peptide: [dY][dS]WNSF[azaGly]L[Arg(Me)]F-NH2
modifications: N-terminus assumed
SMILES: CNC(=N)NCCC[C@H](NC(=O)[C@H](CC(C)C)NC(=O)NNC(=O)[C@H](Cc1ccccc1)NC(=O)[C@H](CO)NC(=O)[C@H](CC(N)=O)NC(=O)[C@H](Cc1c[nH]c2ccccc12)NC(=O)[C@@H](CO)NC(=O)[C@H](N)Cc1ccc(O)cc1)C(=O)N[C@@H](Cc1ccccc1)C(N)=O
notes: also called Compound No. 287
B4: des(1)-[D-Pya(3)2,Phe3,AzaGly7,Arg(Me)9]MS10 (peptide)
peptide: [d3Pal]FNSF[azaGly]L[Arg(Me)]F-NH2
modifications: N-terminus assumed
SMILES: CNC(=N)NCCC[C@H](NC(=O)[C@H](CC(C)C)NC(=O)NNC(=O)[C@H](Cc1ccccc1)NC(=O)[C@H](CO)NC(=O)[C@H](CC(N)=O)NC(=O)[C@H](Cc1ccccc1)NC(=O)[C@H](N)Cc1cccnc1)C(=O)N[C@@H](Cc1ccccc1)C(N)=O
notes: also called Compound No. 256
B5: des(1)-[D-Pya(3)2,AzaGly7,Arg(Me)9]MS10 (peptide)
peptide: [d3Pal]WNSF[azaGly]L[Arg(Me)]F-NH2
notes: also called Compound No. 289; [D-Pya(3)2,AzaGly7,Arg(Me)9]MS10-(2-10)
B6: des(1-2)-Acetyl-[AzaGly7,Arg(Me)9]MS10 (peptide)
peptide: Ac-WNSF[azaGly]L[Arg(Me)]F-NH2
SMILES: CNC(=N)NCCC[C@H](NC(=O)[C@H](CC(C)C)NC(=O)NNC(=O)[C@H](Cc1ccccc1)NC(=O)[C@H](CO)NC(=O)[C@H](CC(N)=O)NC(=O)[C@H](Cc1c[nH]c2ccccc12)NC(C)=O)C(=O)N[C@@H](Cc1ccccc1)C(N)=O
notes: also called Compound No. 272
B7: [D-Pya(4)1,D-Asn2,Cha3,AzaGly7,Arg(Me)9]MS10 (peptide)
peptide: [d4Pal][dN][Cha]NSF[azaGly]L[Arg(Me)]F-NH2
modifications: N-terminus assumed
SMILES: CNC(=N)NCCC[C@H](NC(=O)[C@H](CC(C)C)NC(=O)NNC(=O)[C@H](Cc1ccccc1)NC(=O)[C@H](CO)NC(=O)[C@H](CC(N)=O)NC(=O)[C@H](CC1CCCCC1)NC(=O)[C@@H](CC(N)=O)NC(=O)[C@H](N)Cc1ccncc1)C(=O)N[C@@H](Cc1ccccc1)C(N)=O
notes: also called Compound No. 306
B8: [D-Tyr1,D-Asn2,Pya(4)3,AzaGly7,Arg(Me)9,Phe(4F)10]MS10 (peptide)
peptide: [dY][dN][4Pal]NSF[azaGly]L[Arg(Me)][Phe(4-F)]-NH2
modifications: N-terminus assumed
SMILES: CNC(=N)NCCC[C@H](NC(=O)[C@H](CC(C)C)NC(=O)NNC(=O)[C@H](Cc1ccccc1)NC(=O)[C@H](CO)NC(=O)[C@H](CC(N)=O)NC(=O)[C@H](Cc1ccncc1)NC(=O)[C@@H](CC(N)=O)NC(=O)[C@H](N)Cc1ccc(O)cc1)C(=O)N[C@@H](Cc1ccc(F)cc1)C(N)=O
notes: also called Compound No. 317
B9: [D-Pya(3)1,AzaGly7,Arg(Me)9]MS10 (peptide)
peptide: [d3Pal]NWNSF[azaGly]L[Arg(Me)]F-NH2
modifications: N-terminus assumed
SMILES: CNC(=N)NCCC[C@H](NC(=O)[C@H](CC(C)C)NC(=O)NNC(=O)[C@H](Cc1ccccc1)NC(=O)[C@H](CO)NC(=O)[C@H](CC(N)=O)NC(=O)[C@H](Cc1c[nH]c2ccccc12)NC(=O)[C@H](CC(N)=O)NC(=O)[C@H](N)Cc1cccnc1)C(=O)N[C@@H](Cc1ccccc1)C(N)=O
notes: also called Compound No. 258
B10: Endo-Phe5a-[D-Tyr1,Phe3,AzaGly7,Arg(Me)9]MS10 (peptide)
peptide: [dY]NFNSFF[azaGly]L[Arg(Me)]F-NH2
modifications: N-terminus assumed
SMILES: CNC(=N)NCCC[C@H](NC(=O)[C@H](CC(C)C)NC(=O)NNC(=O)[C@H](Cc1ccccc1)NC(=O)[C@H](Cc1ccccc1)NC(=O)[C@H](CO)NC(=O)[C@H](CC(N)=O)NC(=O)[C@H](Cc1ccccc1)NC(=O)[C@H](CC(N)=O)NC(=O)[C@H](N)Cc1ccc(O)cc1)C(=O)N[C@@H](Cc1ccccc1)C(N)=O
notes: printed in three-letter code: D-Tyr-Asn-Phe-Asn-Ser-Phe-Phe-AzaGly-Leu-Arg(Me)-Phe-NH2; also called Compound No. 270
B11: [D-Pya(3)1,D-Asn2,Cha3,AzaGly7,Arg(Me)9]MS10 (peptide)
peptide: [d3Pal][dN][Cha]NSF[azaGly]L[Arg(Me)]F-NH2
modifications: N-terminus assumed
SMILES: CNC(=N)NCCC[C@H](NC(=O)[C@H](CC(C)C)NC(=O)NNC(=O)[C@H](Cc1ccccc1)NC(=O)[C@H](CO)NC(=O)[C@H](CC(N)=O)NC(=O)[C@H](CC1CCCCC1)NC(=O)[C@@H](CC(N)=O)NC(=O)[C@H](N)Cc1cccnc1)C(=O)N[C@@H](Cc1ccccc1)C(N)=O
notes: also called Compound No. 290
B12: [D-Pya(3)1,D-Tyr2,Cha3,AzaGly7,Arg(Me)9]MS10 (peptide)
peptide: [d3Pal][dY][Cha]NSF[azaGly]L[Arg(Me)]F-NH2
modifications: N-terminus assumed
SMILES: CNC(=N)NCCC[C@H](NC(=O)[C@H](CC(C)C)NC(=O)NNC(=O)[C@H](Cc1ccccc1)NC(=O)[C@H](CO)NC(=O)[C@H](CC(N)=O)NC(=O)[C@H](CC1CCCCC1)NC(=O)[C@@H](Cc1ccc(O)cc1)NC(=O)[C@H](N)Cc1cccnc1)C(=O)N[C@@H](Cc1ccccc1)C(N)=O
notes: also called Compound No. 291

Legend:
[1] = target: T1, human OT7T175 (metastin receptor) (human, UniProt Q969F8 1-398); assay: cell-based or functional assay
T1 sequence (Q969F8 whole entry L364H): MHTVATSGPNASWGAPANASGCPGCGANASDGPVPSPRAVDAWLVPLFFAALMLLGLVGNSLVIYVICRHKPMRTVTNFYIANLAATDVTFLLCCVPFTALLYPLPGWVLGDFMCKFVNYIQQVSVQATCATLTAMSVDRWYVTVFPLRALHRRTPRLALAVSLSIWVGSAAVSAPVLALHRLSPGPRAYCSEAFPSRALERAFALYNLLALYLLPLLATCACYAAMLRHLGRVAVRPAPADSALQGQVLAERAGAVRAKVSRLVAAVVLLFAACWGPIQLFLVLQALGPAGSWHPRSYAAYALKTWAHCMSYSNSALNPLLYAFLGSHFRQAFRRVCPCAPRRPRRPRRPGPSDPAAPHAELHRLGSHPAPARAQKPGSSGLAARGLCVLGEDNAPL

[2] = target: T1, human OT7T175 (metastin receptor); assay: competition with Cy-5 metastin (40-54) on hOT7T175-CHO cells, FMAT
Procedure: hOT7T175-Expressed CHO cells were cultured in MEM-α medium (nucleic acid-free) containing 10% dialyzed serum. The medium was removed and the adhered cells were washed with PBS. Then, PBS containing 5 mM EDTA was added and the cells were scraped from a flask with a cell scraper.
To each well of a 96-Well Black Clear Bottom Microplate (Applied Biosystems, Inc.), 10 μL of assay buffer containing 1% dimethylsulfoxide was added to examine total binding, 10 μL of 10 μM non-labeled peptide (having the same amino acid sequence as that of labeled one) solution diluted with assay buffer to examine non-specific binding, and 10 μL of a test compound diluted with assay buffer to examine a binding inhibition activity of the test compound, and furthermore, 90 μL each of the cell suspension was dispensed to each well. […] Specific binding is calculated as non-specific binding subtracted from total binding. The binding inhibition activity of a test compound is shown by a ratio of the value obtained by subtracting a measured value in presence of a test compound from the total binding to the specific binding.

[3] = target: T1, human OT7T175 (metastin receptor); assay: cell-based or functional assay; remark: listed apart in the source

Binder	Ca ion level-increasing activity (FLIPR) [1]	IC50 [2]	Ca ion level-increasing activity (FLIPR, 40 s) [3]
B1	5 x Metastin (1-54)	300 nM	–
B2	1 x Metastin (1-54)	120 nM	–
YNWNSXGLRF (D-Tyr1; Pya(2)6; Arg(Me)9; C-terminal amide, also called Compound No. 281) [[D-Tyr1,Pya(2)6,Arg(Me)9]MS10]	0.5 x Metastin (1-54)	230 nM	–
Y[dN]WNSFGLRF-NH2 [[D-Asn2]MS10]	–	–	2.7 EC50/MS10 EC50
B3	2 x Metastin (1-54)	2.3 nM	–
B4	1 x Metastin (1-54)	22 nM	–
B5	1 x Metastin (1-54)	8.4 nM	–
YNWNSFGL[Arg(Me)]F-NH2 (also called Compound No. 82) [[Arg(Me)9]MS10]	–	4.1 nM	1 EC50/MS10 EC50
Cyclohexanecarbonyl-NSF[azaGly]L[Arg(Me)]F-NH2 (also called Compound No. 278) [des(1-3)-Cyclohexanecarbonyl-[AzaGly7,Arg(Me)9]MS10]	2 x Metastin (1-54)	110 nM	–
[dY]NWNSFGLRF (not fully specified (C-terminus); also: C-terminal thioamide (CSNH2)) [[10Ψ,CSNH,D-Tyr1]MS10]	–	–	1.5 EC50/MS10 EC50
B6	2 x Metastin (1-54)	540 nM	–
B7	2 x Metastin (1-54)	4.4 nM	–
B8	1 x Metastin (1-54)	2.1 nM	–
{4‑imidazoleacetyl}-NSF[azaGly]L[Arg(Me)]F-NH2 (also called Compound No. 323) [des(1-3)-4-Imidazoleacetyl-[AzaGly7,Arg(Me)9]MS10]	1 x Metastin (1-54)	280 nM	–
B9	2 x Metastin (1-54)	90 nM	–
Y[dN][4Pal]NSF[azaGly]L[Arg(Me)]F-NH2 (also called Compound No. 304) [[D-Asn2,Pya(4)3,AzaGly7,Arg(Me)9]MS10]	3 x Metastin (1-54)	5 nM	–
[dY]N[d4Pal]NSF[azaGly]L[Arg(Me)]F-NH2 (also called Compound No. 302) [[D-Tyr1,D-Pya(4)3,AzaGly7,Arg(Me)9]MS10]	2 x Metastin (1-54)	7.7 nM	–
{n‑hexanoyl}-NSF[azaGly]L[Arg(Me)]F-NH2 (also called Compound No. 277) [des(1-3)-n-Hexanoyl-[AzaGly7,Arg(Me)9]MS10]	2 x Metastin (1-54)	54 nM	–
B10	1 x Metastin (1-54)	15 nM	–
[dY]INSF[azaGly]L[Arg(Me)]F-NH2 (also called Compound No. 240) [des(1)-[D-Tyr2,Ile3,AzaGly7,Arg(Me)9]MS10]	–	17 nM	4.9 EC50/MS10 EC50
[dY]SNSF[azaGly]L[Arg(Me)]F-NH2 (also called Compound No. 239) [des(1)-[D-Tyr2,Ser3,AzaGly7,Arg(Me)9]MS10]	–	120 nM	6.7 EC50/MS10 EC50
{4‑(3-indolyl)butyryl}-NSF[azaGly]L[Arg(Me)]F-NH2 (also called Compound No. 267) [des(1-3)-4-(3-Indolyl)butyryl-[AzaGly7,Arg(Me)9]MS10]	2 x Metastin (1-54)	360 nM	–
B11	1 x Metastin (1-54)	1.4 nM	–
B12	2 x Metastin (1-54)	0.41 nM	–
